Test results: patent US20030092035A1 (CALIFORNIA INSTITUTE OF TECHNOLOGY, published 2003)
Ends that are not written are not given here.

T1: MRGA4-GFP fusion protein (mouse) (UniProt Q91WW2)
T1 sequence: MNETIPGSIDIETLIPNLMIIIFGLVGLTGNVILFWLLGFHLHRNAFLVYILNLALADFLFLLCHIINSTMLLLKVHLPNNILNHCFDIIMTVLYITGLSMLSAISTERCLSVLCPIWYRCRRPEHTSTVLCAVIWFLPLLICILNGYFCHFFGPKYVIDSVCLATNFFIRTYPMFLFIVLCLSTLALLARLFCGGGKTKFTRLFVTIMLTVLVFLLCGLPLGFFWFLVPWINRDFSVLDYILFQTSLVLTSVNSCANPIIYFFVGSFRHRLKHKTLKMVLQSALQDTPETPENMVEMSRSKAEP

T2: MRGA1-GFP fusion protein (mouse, UniProt Q91WW5 1-304)
T2 sequence: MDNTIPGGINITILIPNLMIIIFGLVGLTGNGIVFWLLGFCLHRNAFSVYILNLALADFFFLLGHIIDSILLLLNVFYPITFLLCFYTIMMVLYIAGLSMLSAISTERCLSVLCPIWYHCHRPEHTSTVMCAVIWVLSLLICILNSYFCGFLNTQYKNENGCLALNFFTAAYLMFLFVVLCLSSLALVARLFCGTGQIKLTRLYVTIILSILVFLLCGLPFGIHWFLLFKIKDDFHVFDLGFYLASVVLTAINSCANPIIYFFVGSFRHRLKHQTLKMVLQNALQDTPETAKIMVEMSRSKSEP


How the values were obtained:
[1] = target: T1, MRGA4-GFP fusion protein (mouse); assay: cell-based or functional assay
MRGA1-GFP fusion protein = target: T2, MRGA1-GFP fusion protein; assay: cell-based or functional assay

Row | Molecule | EC50, Ca2+ dose-response in HEK-Galpha15 cells [1] [nM] | EC50, Ca2+ dose-response in HEK-Galpha15 cells (MRGA1-GFP fusion protein) [nM]
1 | AGEGLNSQFWSLAAPQRF-NH2 (peptide, UniProt O15130 93-110, looked up, species assumed, ends and bridges not checked) [NPAF] | 60 | 
2 | FLRF-NH2 [FLRFamide] |  | ~20

More lines, now with the values ahead:

Row | EC50, Ca2+ dose-response in HEK-Galpha15 cells [1] [nM] | EC50, Ca2+ dose-response in HEK-Galpha15 cells (MRGA1-GFP fusion protein) [nM] | Molecule
3 | 200 | 60 | ACTH (peptide)
4 |  | 200 | NPFF (peptide)
